Source: paper PMC3732869

Molecular target: PTH receptors on UMR 106 cells (rat (endogenous in UMR 106)) (UniProt P25961)
Chain of UniProt P25961 (P25961 27-591): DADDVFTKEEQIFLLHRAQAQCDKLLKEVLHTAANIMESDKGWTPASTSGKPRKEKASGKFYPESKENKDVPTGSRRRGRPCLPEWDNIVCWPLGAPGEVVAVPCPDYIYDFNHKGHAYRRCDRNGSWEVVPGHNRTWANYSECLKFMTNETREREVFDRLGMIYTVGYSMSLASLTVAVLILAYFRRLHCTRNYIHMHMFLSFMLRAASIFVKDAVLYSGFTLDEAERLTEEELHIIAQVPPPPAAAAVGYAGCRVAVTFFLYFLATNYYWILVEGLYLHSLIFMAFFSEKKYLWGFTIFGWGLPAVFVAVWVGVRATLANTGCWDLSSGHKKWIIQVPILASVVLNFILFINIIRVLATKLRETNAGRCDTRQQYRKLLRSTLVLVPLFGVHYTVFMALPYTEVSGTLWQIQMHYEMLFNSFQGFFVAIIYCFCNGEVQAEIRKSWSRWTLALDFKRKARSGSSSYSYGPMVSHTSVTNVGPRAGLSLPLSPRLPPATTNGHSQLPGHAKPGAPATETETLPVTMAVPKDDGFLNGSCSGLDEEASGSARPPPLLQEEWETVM

potency in the cAMP bioassay on UMR 106 cells, against the standard: 99.7%
Substance: recombinant human parathyroid hormone (rhPTH 1-34) (peptide)
